Data: patent publication US20210188933A1

Target: IL-15RβγC
Assay: cell-based or functional assay

“ALT-803 (IL-15N72D:IL-15RαSu/Fc complex) (from UniProt Q13261 31-95) (Fc fusion)” showed an EC50 of ALT-803 stimulated proliferation of IL-15RβγC-bearing cells of 0.016 nM.
